Measurements published in PMC3227653 (PLoS ONE, 2011).

B1: A20.1m (VHH)
VHH: QVQLVESGGGLAQAGGSLRLSCAASGRTFSMDPMAWFRQPPGKEREFVCAGSSTGRTTYYADSVKGRFTCSRDNAKNTVYLQMNSLKPEDTAVYYCAAAPYGANWYRDEYAYWGQGTQVTVSS
B2: A26.8m (VHH)
VHH: QVKLEESGGGLVQAGGSLRLSCAASERTFSRYPVAWFRQAPGAEREFVCVISSTGTSTYYADSVKGRFTCSRDNAKVTVYLQMNNLKREDTAVYFCAVNSQRTRLQDPNEYDYWGQGTQVTVSS
B3: A4.2m (VHH)
VHH: QVKLEESGGGLVQAGGSLRLSCAASGRTFNTLSMGWFRQAPGKEREFVCAVSRSGGSTYYADSVKGRFTCSRDNAKNTVYLQMNSLKPEDTAVYYCAAAATKSNTTAYRLSFDYWGQGTQVTVSS
B4: A5.1m (VHH)
VHH: QVKLEESGGGLVQAGGSLRLSCAASGRTFSMYRMGWFRQAPGKEREFVCVITRNGSSTYYADSVKGRFTCSRDNAKNTVYLQMNSLKPEDTALYYCAATSGSSYLDAAHVYDYWGQGTQVTVSS

target: Clostridium difficile toxin A (Clostridioides difficile …, UniProt P16154); experiment: SPR; conditions: both partners purified

In order of rising Kd:
1. B1  9.2 nM
2. B4  17 nM
3. B3  20 nM
4. B2  28 nM

In order of rising koff:
1. B1  0.0059 s⁻¹
2. B4  0.016 s⁻¹
3. B3  0.019 s⁻¹
4. B2  0.028 s⁻¹

In order of falling kon:
1. B2  1e+06 M⁻¹ s⁻¹
2. B4  950000 M⁻¹ s⁻¹
3. B3  930000 M⁻¹ s⁻¹
4. B1  640000 M⁻¹ s⁻¹
